# Source: PMC8231982 (Molecules, 2021)
# B1: HIV-1 gp140 trimer, Clade A 92 UG 037.8 (domain or fragment)
# chain: not shown
# B2: HC19 Fab, anti-influenza HA (Fab, V domains shown)
# VH: QVQLKESGPGLVAPSQSLSITCTVSGFLLISNGVHWVRQPPGKGLEWLGVIWAGGNTNYNSALMSRVSISKDNSKSQVFLKMKSLQTDDTAMYYCARDFYDYDVFYYAMDYWGQGTSVTVSS
# VL: QAVVTQESALTTSPGETVTLTCRSSTGAVTTSNYANWVQEKPDHLFTGLIGGTNNRAPGVPARFSGSLIGDKAALTITGAQTEDEAIYFCALWYSNHWVFGGGTKLTVL
# notes: also called anti-HA HC19; HC19 anti-influenza Fab; source: HEK293-6E, transient transfection, purified from supernatant (protein A, SEC)
# Tests used:
# Conditions in all cases: both partners purified
# [1] = biological target: T1, wild-type cyanovirin-N (WT CV–N) ( (cyanobacterial lectin), UniProt P81180 1-101); assay: SPR
# T1 construct: also called WT CV–N monomer; monomeric CV–N
# T1 sequence: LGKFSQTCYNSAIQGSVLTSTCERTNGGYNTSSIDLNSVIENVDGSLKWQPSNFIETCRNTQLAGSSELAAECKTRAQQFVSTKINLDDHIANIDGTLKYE
# HA H3 top domain [2] = biological target: T2, HA H3 top domain ( (Figure 2 shows HA of …, UniProt P03437)); assay: ELISA
# T2 construct: source: HEK293T, pTT5 vector, purified via His-tag on Ni-NTA
# HA H3 top domain [3] = biological target: T2, HA H3 top domain; assay: SPR
Binder,Kd [1],Kd (HA H3 top domain [2]),Kd (HA H3 top domain [3]),koff (HA H3 top domain [3]),kon (HA H3 top domain [3])
B1,120 nM,,,,
B2,,12.5 nM,64 nM,0.0231 s⁻¹,360000 M⁻¹ s⁻¹
